B1: C9orf25 (parent)
chain: LARKGSLKNGSMGSPVNQQPKKNN
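Note: lentivirally expressed fusions sorted by FACS into six bins by GFP to DsRed ratio, PSI derived from sequencing read proportions per bin multiplied by bin number.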

The variants in the data set derive from B1. Description: protein stability index of a GFP-peptide fusion (GPS, HEK-293T) (PSI 1-6); higher = more stable. The conditions noted are these: c terminus: a fixed tail appended.
In the case of LARKGSLKNGSMISPVNQQPKKNN [G13I], the protein stability index is 4.72.
For the variant LARKGSLKNGSMCSPVNQQPKKNN [G13C], the protein stability index worked out at 5.04.
As for LARKGSLKNGSMRSPVNQQPKKNN [G13R], the figure is 4.36; as for LARKGSLKNGSMASPVNQQPKKNN [G13A], 4.79.
Next, LARKGSLKNGSMNSPVNQQPKKNN [G13N]: 4.97; LARKGSLKNGSMMSPVNQQPKKNN [G13M]: 4.44.
As for LARKGSLKNGSMQSPVNQQPKKNN [G13Q], the figure is 4.99; as for LARKGSLKNGSMHSPVNQQPKKNN [G13H], 4.58; as for LARKGSLKNGSMWSPVNQQPKKNN [G13W], 3.66.
Regarding LARKGSLKNGSMPSPVNQQPKKNN [G13P], the protein stability index was 4.33.
As for LARKGSLKNGSMESPVNQQPKKNN [G13E], the figure is 5.23; as for LARKGSLKNGSMKSPVNQQPKKNN [G13K], 4.28.
In the case of LARKGSLKNGSMFSPVNQQPKKNN [G13F], the protein stability index came out at 4.06.
As for LARKGSLKNGSMDSPVNQQPKKNN [G13D], the protein stability index is 4.64.
LARKGSLKNGSMVSPVNQQPKKNN [G13V]: the protein stability index was determined as 4.69.
As for LARKGSLKNGSMLSPVNQQPKKNN [G13L], the figure is 4.92; as for LARKGSLKNGSMSSPVNQQPKKNN [G13S], 3.98.
As for LARKGSLKNGSMTSPVNQQPKKNN [G13T], the figure is 4.79.
As for LARKGSLKNGSMYSPVNQQPKKNN [G13Y], the figure is 4.44.
For the variant LARKGSLKNGSNGSPVNQQPKKNN [M12N], the protein stability index came to 4.43.
As for LARKGSLKNGSKGSPVNQQPKKNN [M12K], the figure is 5.15; as for LARKGSLKNGSEGSPVNQQPKKNN [M12E], 5.29.
Next, LARKGSLKNGSRGSPVNQQPKKNN [M12R]: 4.7; LARKGSLKNGSTGSPVNQQPKKNN [M12T]: 4.74; LARKGSLKNGSFGSPVNQQPKKNN [M12F]: 4.56.
For LARKGSLKNGSVGSPVNQQPKKNN [M12V], the protein stability index was 4.98.
In the case of LARKGSLKNGSWGSPVNQQPKKNN [M12W], the protein stability index was 4.11.
As for LARKGSLKNGSLGSPVNQQPKKNN [M12L], the figure is 4.44; as for LARKGSLKNGSGGSPVNQQPKKNN [M12G], 4.49; as for LARKGSLKNGSYGSPVNQQPKKNN [M12Y], 4.4.
As for LARKGSLKNGSIGSPVNQQPKKNN [M12I], the figure is 4.42; as for LARKGSLKNGSPGSPVNQQPKKNN [M12P], 4.84.
Take LARKGSLKNGSCGSPVNQQPKKNN [M12C]: the protein stability index turned out to be 4.58.
As for LARKGSLKNGSSGSPVNQQPKKNN [M12S], the figure is 4.94.
Next, LARKGSLKNGSQGSPVNQQPKKNN [M12Q]: 4.4; LARKGSLKNGSDGSPVNQQPKKNN [M12D]: 5.06; LARKGSLKNGSAGSPVNQQPKKNN [M12A]: 4.42.
As for LARKGSLKNGSHGSPVNQQPKKNN [M12H], the figure is 4.42.
On to LARKGSLWNGSMGSPVNQQPKKNN [K8W], for which the protein stability index worked out at 4.1.
As for LARKGSLPNGSMGSPVNQQPKKNN [K8P], the figure is 4.71.
As for LARKGSLNNGSMGSPVNQQPKKNN [K8N], the figure is 5.17.
Next, LARKGSLGNGSMGSPVNQQPKKNN [K8G]: 5.
Consider LARKGSLVNGSMGSPVNQQPKKNN [K8V], for which the protein stability index was 4.43.
As for LARKGSLMNGSMGSPVNQQPKKNN [K8M], the figure is 4.45; as for LARKGSLYNGSMGSPVNQQPKKNN [K8Y], 4.11.
As for LARKGSLRNGSMGSPVNQQPKKNN [K8R], the figure is 4.57; as for LARKGSLCNGSMGSPVNQQPKKNN [K8C], 4.32.
Next, LARKGSLDNGSMGSPVNQQPKKNN [K8D]: 4.2.
In the case of LARKGSLANGSMGSPVNQQPKKNN [K8A], the protein stability index amounted to 4.55.
With LARKGSLHNGSMGSPVNQQPKKNN [K8H], the protein stability index was found to be 4.7.
On to LARKGSLENGSMGSPVNQQPKKNN [K8E], for which the protein stability index amounted to 4.29.
In the case of LARKGSLQNGSMGSPVNQQPKKNN [K8Q], the protein stability index was 4.84.
As for LARKGSLFNGSMGSPVNQQPKKNN [K8F], the figure is 4.42; as for LARKGSLLNGSMGSPVNQQPKKNN [K8L], 4.12.
As to LARKGSLINGSMGSPVNQQPKKNN [K8I], the protein stability index is 4.76.
Next, LARKGSLSNGSMGSPVNQQPKKNN [K8S]: 4.73.
As for LARKGSLTNGSMGSPVNQQPKKNN [K8T], the figure is 4.53.
Next, LARKGSDKNGSMGSPVNQQPKKNN [L7D]: 4.01; LARKGSYKNGSMGSPVNQQPKKNN [L7Y]: 4.17.
With LARKGSPKNGSMGSPVNQQPKKNN [L7P], the protein stability index turned out to be 4.71.
As for LARKGSTKNGSMGSPVNQQPKKNN [L7T], the figure is 4.71.
Next, LARKGSVKNGSMGSPVNQQPKKNN [L7V]: 3.39.
As for LARKGSRKNGSMGSPVNQQPKKNN [L7R], the figure is 4.14; as for LARKGSKKNGSMGSPVNQQPKKNN [L7K], 5.32.
Turning to LARKGSGKNGSMGSPVNQQPKKNN [L7G], the protein stability index worked out at 4.57.
As to LARKGSWKNGSMGSPVNQQPKKNN [L7W], the protein stability index came out at 3.97.
In the case of LARKGSCKNGSMGSPVNQQPKKNN [L7C], the protein stability index came out at 5.02.
With LARKGSSKNGSMGSPVNQQPKKNN [L7S], the protein stability index worked out at 4.83.
In the case of LARKGSHKNGSMGSPVNQQPKKNN [L7H], the protein stability index is 4.76.
LARKGSIKNGSMGSPVNQQPKKNN [L7I]: the protein stability index came to 4.56.
As for LARKGSEKNGSMGSPVNQQPKKNN [L7E], the figure is 3.63.
Turning to LARKGSFKNGSMGSPVNQQPKKNN [L7F], the protein stability index came to 4.2.
As for LARKGSMKNGSMGSPVNQQPKKNN [L7M], the figure is 4.66; as for LARKGSQKNGSMGSPVNQQPKKNN [L7Q], 5.04; as for LARKGSAKNGSMGSPVNQQPKKNN [L7A], 4.51.
As for LARKGSNKNGSMGSPVNQQPKKNN [L7N], the figure is 4.55; as for LARKGELKNGSMGSPVNQQPKKNN [S6E], 5.15; as for LARKGVLKNGSMGSPVNQQPKKNN [S6V], 4.29.
Next, LARKGRLKNGSMGSPVNQQPKKNN [S6R]: 3.99; LARKGCLKNGSMGSPVNQQPKKNN [S6C]: 4.05.
Take LARKGLLKNGSMGSPVNQQPKKNN [S6L]: the protein stability index stood at 4.12.
As for LARKGFLKNGSMGSPVNQQPKKNN [S6F], the figure is 4.36.
LARKGWLKNGSMGSPVNQQPKKNN [S6W]: the protein stability index stood at 4.23.
As for LARKGPLKNGSMGSPVNQQPKKNN [S6P], the protein stability index was found to be 4.59.
As for LARKGQLKNGSMGSPVNQQPKKNN [S6Q], the figure is 4.76.
LARKGNLKNGSMGSPVNQQPKKNN [S6N]: the protein stability index came out at 4.69.
Next, LARKGMLKNGSMGSPVNQQPKKNN [S6M]: 4.38; LARKGGLKNGSMGSPVNQQPKKNN [S6G]: 4.64; LARKGHLKNGSMGSPVNQQPKKNN [S6H]: 4.43.
As for LARKGKLKNGSMGSPVNQQPKKNN [S6K], the figure is 4.37; as for LARKGYLKNGSMGSPVNQQPKKNN [S6Y], 4.89.
As for LARKGTLKNGSMGSPVNQQPKKNN [S6T], the figure is 4.76; as for LARKGILKNGSMGSPVNQQPKKNN [S6I], 4.72; as for LARKGDLKNGSMGSPVNQQPKKNN [S6D], 5.1.

These data come from the supplement of paper PMC10567573.
